Test results: patent US20100199379

System: T1, Medicago sativa NAP1-like protein, 6×HIS-tagged, expressed in BL21 E. coli and purified on nickel agarose
T1 sequence: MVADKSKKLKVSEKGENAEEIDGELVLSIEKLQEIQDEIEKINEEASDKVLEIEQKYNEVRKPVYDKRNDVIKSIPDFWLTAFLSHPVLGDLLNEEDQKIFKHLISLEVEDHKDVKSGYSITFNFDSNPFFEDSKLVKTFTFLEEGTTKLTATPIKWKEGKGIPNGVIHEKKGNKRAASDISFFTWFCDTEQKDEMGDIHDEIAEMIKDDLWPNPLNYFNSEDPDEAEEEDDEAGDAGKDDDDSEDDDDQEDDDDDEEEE

Protein Phosphatase 2A (PP2A) catalytic subunits purified from rabbit skeletal muscle
PP2A activity on the phospho-histone H2A substrate (in vitro dephosphorylation of 32P-labelled substrate): already 2.5 mM concentration of the NAP1-like protein efficiently inhibited PP2A activity on the phospho-histonH2A substrate (50% decrease in activity) | PP2A dephosphorylation of glycogen phosphorylase (in vitro, 32P-labelled substrate): the NAP1-like protein had no influence on the dephosphorylation of the glycogen phosphorylase even at 500 mM concentration
